From paper PMC11268888 come the findings set out here.

The target in this assay is soluble head domain of CDV-H (canine distemper virus hemagglutinin), Kyoto Biken vaccine strain, mad (canine distemper virus (Kyoto Biken vaccine strain)). Put plainly: SEC + other: non-reducing SDS-PAGE.

What is called stoichiometry N is the number of molecules, sites or subunits per partner or assembly. On to “soluble head domain of CDV-H (canine distemper virus hemagglutinin), Kyoto Biken vaccine strain, mad (domain or fragment)”, for which the stoichiometry N came out at 2.
